Values joined by “and” are separate entries in the source; they are usually repeats but may differ in a detail not shown here. Equal entries are not always repeated.
What was measured:
[1] = target: H3K9me3 peptide, FITC-labeled; assay: fluorescence polarisation; 0.5 nM FITC-labeled peptide, chromodomain serially diluted (wild types 200-0.2 µM; Cbx7.V1 and Cbx.VDs 50 µM-50 nM); 25 °C, 30 min; 25 mM HEPES pH 7.5, 150 mM NaCl, 1 mM DTT, 0.01% TritonX-100; one-site total binding model; values of single replicates
[2] = target: H3K9me3 peptide, N-terminal FITC; assay: fluorescence polarisation; 0.5 nM FITC-labelled peptide; chromodomains 200-0.2 µM (wild type) or 50 µM-50 nM (Cbx7.V1 and all Cbx.VDs); 30 min at 25 °C; 25 mM HEPES pH 7.5, 150 mM NaCl, 1 mM DTT, 0.01% TritonX-100; one-site total binding model
[3] = target: H3K27me3 peptide, FITC-labeled; assay: fluorescence polarisation; 0.5 nM FITC-labeled peptide, chromodomain serially diluted (wild types 200-0.2 µM; Cbx7.V1 and Cbx.VDs 50 µM-50 nM); 25 °C, 30 min; 25 mM HEPES pH 7.5, 150 mM NaCl, 1 mM DTT, 0.01% TritonX-100; one-site total binding model; values of single replicates
[4] = target: H3K27me3 peptide, N-terminal FITC; assay: fluorescence polarisation; 0.5 nM FITC-labelled peptide; chromodomains 200-0.2 µM (wild type) or 50 µM-50 nM (Cbx7.V1 and all Cbx.VDs); 30 min at 25 °C; 25 mM HEPES pH 7.5, 150 mM NaCl, 1 mM DTT, 0.01% TritonX-100; one-site total binding model
[5] = target: Histone H3 H3K9me3 peptide (Homo sapiens) (UniProt P68431); settings: cited from earlier work
[6] = target: FITC-labeled H3K9me3 peptide; assay: fluorescence polarisation; 0.5 nM FITC-labeled peptide, chromodomain serially diluted (wild type 200-0.2 µM; Cbx7.V1 50 µM-50 nM); 25 mM HEPES pH 7.5, 150 mM NaCl, 1 mM DTT, 0.01% TritonX-100; 30 min at 25 °C; one-site total binding model
[7] = target: H3K27 peptide (non-methylated), N-terminal biotin; assay: phage ELISA; settings: read off a plot
[8] = target: H3K27me3 peptide, N-terminal biotin; assay: phage ELISA; settings: read off a plot

Cbx1 chromodomain with the Asp9/Glu33 double substitution (from UniProt P83916 20-73) (domain or fragment)
Kd [1]: 582 nM and 632 nM and 600 nM

Cbx1.VD chromodomain, Asp9/Glu33 (tags removed) (from UniProt P83916 20-73) (domain or fragment)
Kd [2]: 600 nM

Cbx2 chromodomain with the Asp9/Glu33 double substitution (from UniProt Q14781 9-62) (domain or fragment)
Kd [3]: 2400 nM and 2100 nM and 4300 nM | Kd [1]: 4000 nM and 6000 nM and 5000 nM

Cbx2.VD chromodomain, Asp9/Glu33 (tags removed) (from UniProt Q14781 9-62) (domain or fragment)
Kd [4]: 3000 nM | Kd [2]: 5000 nM

Cbx3 chromodomain with the Asp9/Glu33 double substitution (from UniProt Q13185 29-86) (domain or fragment)
Kd [1]: 390 nM and 290 nM and 370 nM

Cbx3.VD chromodomain, Asp9/Glu33 (tags removed) (from UniProt Q13185 29-86) (domain or fragment)
Kd [2]: 350 nM

Cbx5 chromodomain with the Asp9/Glu33 double substitution (from UniProt P45973 18-75) (domain or fragment)
Kd [1]: 560 nM and 440 nM and 510 nM

Cbx5.VD chromodomain, Asp9/Glu33 (tags removed) (from UniProt P45973 18-75) (domain or fragment)
Kd [2]: 500 nM

Cbx7 chromodomain (from UniProt O95931)
Kd [5]: 55000 nM

Cbx7.wt (domain or fragment)
Kd [6]: 27000 nM

Cbx7.wt E8D; Q9D; V10I; K33E; P37L; K38E
response (Absorbance at 450 nm) [7]: 0.12

Cbx7.wt E8H; Q9D; A12P; K33R; G34D; P37E; K38Q
response (Absorbance at 450 nm) [7]: 0.08 | response (Absorbance at 450 nm) [8]: 0.55

Cbx7.wt G7C; E8D; Q9N; F11Y; A12P; P37L; K38E
response (Absorbance at 450 nm) [7]: 0.11 | response (Absorbance at 450 nm) [8]: 1.9

Cbx7.wt G7C; E8D; Q9N; K33E; P37Q; K38E
response (Absorbance at 450 nm) [7]: 0.09 | response (Absorbance at 450 nm) [8]: 0.52

Cbx7.wt G7C; Q9Y; V10I; A12S; K33E; K38E; S40M
response (Absorbance at 450 nm) [7]: 0.12 | response (Absorbance at 450 nm) [8]: 0.5

Cbx7.wt G7F; Q9D; A12P; P37S; K38E
response (Absorbance at 450 nm) [7]: 0.13 | response (Absorbance at 450 nm) [8]: 0.73

Cbx8 chromodomain with the Asp9/Glu33 double substitution (from UniProt Q9HC52 8-61) (domain or fragment)
Kd [1]: 21000 nM and 26000 nM and 16000 nM

Cbx8.VD chromodomain, Asp9/Glu33 (tags removed) (from UniProt Q9HC52 8-61) (domain or fragment)
Kd [4]: > 50000 nM | Kd [2]: 20000 nM
